B1: anti-AAV-VHH antibody VHH1 (VHH)
VHH: QVQLVESGGGLVQAGGSLRLSCAASGRTFSSYAMGWFRQAPGKEREIVASISWNGGSTDYADSVKGRFTISRDNAKNTVYLQMNSLKPEDTAVYYCAADSTNWVFYDYWGQGTQVTVSS

How the values were obtained:
[1] = target: adeno-associated virus type 2 (AAV2) particles (adeno-associated virus type 2) (UniProt P03135); test: affinity column (beads), AAV2 crude liquid, 0.2 mL/min, qPCR
[2] = target: adeno-associated virus type 2 (AAV2) particles (adeno-associated virus type 2) (UniProt P03135); test: affinity column (beads), AAV2 pre-treatment liquid, 0.2 mL/min, qPCR
[3] = target: adeno-associated virus type 2 (AAV2) particles (adeno-associated virus type 2) (UniProt P03135); test: affinity column (beads), AAV2 crude liquid, retention time 5 sec, qPCR
[4] = target: adeno-associated virus type 2 (AAV2) particles (adeno-associated virus type 2) (UniProt P03135); test: affinity column (beads), AAV2 crude liquid, retention time 10 sec, qPCR
[5] = target: adeno-associated virus type 1 (AAV1) particles (adeno-associated virus type 1); test: batch adsorption of AAV1 pre-treatment liquid to discs (ligand on nonwoven fabric 1), acid elution, qPCR

Row | Molecule | leaked AAV to FT [1] [vg] | ratio of leaked AAV to recovered AAV [1] [%] | ratio of residual AAV to recovered AAV [1] [%] | recovered AAV in elution step [1] [vg] | residual AAV in washing step [1] [vg] | ratio of residual AAV to recovered AAV [2] [%] | recovered AAV in elution step [2] [vg] | residual AAV in washing step [2] [vg] | leaked AAV to FT [3] [vg] | ratio of leaked AAV to recovered AAV [3] [%] | ratio of residual AAV to recovered AAV [3] [%] | recovered AAV in elution step [3] [vg] | residual AAV in washing step [3] [vg] | leaked AAV to FT [4] [vg] | ratio of leaked AAV to recovered AAV [4] [%] | ratio of residual AAV to recovered AAV [4] [%] | recovered AAV in elution step [4] [vg] | residual AAV in washing step [4] [vg] | amount of the AAV1 adsorbed [5] [vg/mL-column]
1 | POROS CaptureSelect AAVX (ligand of the commercial affinity resin, Thermo Scientific) (VHH) | 5.97e+09 | 1 | 17 | 8.77e+11 | 1.49e+11 | 48.8 | 5.75e+11 | 2.8e+11 | 1.38e+11 | 19 | 22 | 7.42e+11 | 1.67e+11 | 4.19e+10 | 5 | 17 | 8.66e+11 | 1.47e+11 | –
2 | B1 | – | – | – | – | – | – | – | – | – | – | – | – | – | – | – | – | – | – | 1.1e+13

— patent publication US20240024851A1
